# Reference: patent publication US6863888 (University of California, dated 2005)
# B1: c-Jun N-terminal protein kinase (JNK), 46 kD form, endogenous kinase from cell extracts (enzyme)
# chain: MSRSKRDNNFYSVEIGDSTFTVLKRYQNLKPIGSGAQGIVCAAYDAILERNVAIKKLSRPFQNQTHAKRAYRELVLMKCVNHKNIIGLLNVFTPQKSLEEFQDVYIVMELMDANLCQVIQMELDHERMSYLLYQMLCGIKHLHSAGIIHRDLKPSNIVVKSDCTLKILDFGLARTAGTSFMMTPYVVTRYYRAPEVILGMGYKENVDLWSVGCIMGEMVCHKILFPGRDYIDQWNKVIEQLGTPCPEFMKKLQPTVRTYVENRPKYAGYSFEKLFPDVLFPADSEHNKLKASQARDLLSKMLVIDASKRISVDEALQHPYINVWYDPSEAEAPPPKIPDKQLDEREHTIEEWKELIYKEVMDLEERTKNGVIRGQPSPLAQVQQ
# B2: epitope-tagged JNK1 (Flag epitope Asp-Tyr-Lys-Asp-Asp-Asp-Asp-Lys inserted between codons 1 and 2), expressed in COS cells (enzyme)
# chain: MDYKDDDDKSRSKRDNNFYSVEIGDSTFTVLKRYQNLKPIGSGAQGIVCAAYDAILERNVAIKKLSRPFQNQTHAKRAYRELVLMKCVNHKNIIGLLNVFTPQKSLEEFQDVYIVMELMDANLCQVIQMELDHERMSYLLYQMLCGIKHLHSAGIIHRDLKPSNIVVKSDCTLKILDFGLARTAGTSFMMTPYVVTRYYRAPEVILGMGYKENVDLWSVGCIMGEMVCHKILFPGRDYIDQWNKVIEQLGTPCPEFMKKLQPTVRTYVENRPKYAGYSFEKLFPDVLFPADSEHNKLKASQARDLLSKMLVIDASKRISVDEALQHPYINVWYDPSEAEAPPPKIPDKQLDEREHTIEEWKELIYKEVMDLEERTKNGVIRGQPSPLAQVQQ
# notes: Tag inserted between codons 1 and 2 of the JNK1 cDNA in pCMV5; also called immunopurified JNK1
# Tests used:
# [1] = molecular target: GAL4-cJun(1-223), GAL4 DNA binding domain fused to c-Jun AA 1-223 (yeast; human, UniProt P04386 1-147); assay: cell-based or functional assay
# [2] = molecular target: B2; assay: COS cell lysates on GST-cJun(1-79) immobilized on GSH-agarose beads, Western blot with M2 antibody
# Description: COS cell extracts (250 µg) were incubated with 20 µg GST or GST-cJun immobilized on 10 µl GSH-agarose at 4° C. for 5 hours.
# Mock-transfected COS cells were used in control experiments (lanes 1 & 2). The cells were either untreated (lanes 1 & 3) or irradiated with 40 J/m^2 UV-C (lanes 2, 4, & 5). Cell lysates were prepared and incubated with GST-cJun(1-79) (lanes 1–4) or GST (lane 5) immobilized on GSH-agarose beads.
# [3] = molecular target: B2; assay: immunopurified JNK1 on GST-Jun fusion proteins bound to GSH-agarose, solid-phase kinase assay
# Description: (§1) Clarified cell extracts were incubated with GST fusion proteins immobilized on GSH-agarose beads. […] The reaction was terminated after 10 mins at 30° C. and the products were resolved by SDS-PAGE. The incorporation of [^32P]phosphate was visualized by autoradiography and quantitated with a phosphorimager and ImageQuant software (Molecular Dynamics Inc., Sunnyvale, Calif.).
# (§2) Mock-transfected COS cells were used as a control. After 1 hour, the cells were lysed and subjected to immunoprecipitation with the M2 monoclonal antibody. […] The phosphorylated proteins were resolved by SDS-PAGE and detected by autoradiography.
# [4] = molecular target: T1, GSTcJun(wt), glutathione-S-transferase fused to c-Jun AA 1-223 (human, UniProt P08515 1-218 = GST); assay: as above
# T1 construct: Expressed in E. coli, held on GSH-agarose beads; also called human GSTcJun
# Description: as §1, §2
# [5] = molecular target: B1; assay: GSTcJun deletion mutants on GSH-agarose, UV-irradiated HeLa extract; solid-phase kinase assay and eluted-kinase assay
binder,measurement,setting,value
B1,"Ha-Ras responsiveness, CAT activity of 5xGAL4-Elb-CAT reporter in F9 cells",[1],19 fold induction
same,"UV responsiveness, CAT activity of 5xGAL4-Elb-CAT reporter in F9 cells",[1],7.5 fold
"GST-cJun(1-79), GST fused to c-Jun AA 1-79 (other, also called GST fusion protein containing AA 1-79 of c-Jun; not shown: glutathione-S-transferase (GST) carrier encoded by pGEX3X (Pharmacia)) MTAKMETTFYDDALNASFLPSESGPYGYSNPKILKQSMTLNLADPVGSLKPHLRAKNSDLLTSPDVGLLKLASPELERL",binding result,[2],binds
"GSTcJun(33-223), GST fused to c-Jun AA 33-223 (other, also called removal of AA 1-32; not shown: GST carrier (pGEX3X, Pharmacia) and the vector junction residues) ILKQSMTLNLADPVGSLKPHLRAKNSDLLTSPDVGLLKLASPELERLIIQSSNGHITTTPTPTQFLCPKNVTDEQEGFAEGFVRALAELHSQNTLPSVTSAAQPVNGAGMVAPAVASVAGGSGSGGFSASLHSEPPVYANLSNFNPGALSSGGGAPSYGAAGLAFPAQPQQQQQPPHHLPQQMPVQHPRLQ",binding result,[3],binds
B2,binding result,[4],binds
"GST-cJun(43-223), GST fused to c-Jun AA 43-223 (other, also called removal of AA 1-42; deletion of residues 1-42; not shown: GST carrier (pGEX3X, Pharmacia) and the vector junction residues) ADPVGSLKPHLRAKNSDLLTSPDVGLLKLASPELERLIIQSSNGHITTTPTPTQFLCPKNVTDEQEGFAEGFVRALAELHSQNTLPSVTSAAQPVNGAGMVAPAVASVAGGSGSGGFSASLHSEPPVYANLSNFNPGALSSGGGAPSYGAAGLAFPAQPQQQQQPPHHLPQQMPVQHPRLQ",binding result,[3],no binding
same,binding result,[5],no binding
